Patent US20220017630A1 (JIANGSU SIMCERE PHARMACEUTICAL, published 2022)
Each block holds one binder with its values, some of them ahead of it.

Legend:
[1] = molecular target: T1, human TNFR2 on the cell surface (CHO-TNFR2 cells; human Treg cells) (human, UniProt P20333 23-461); experiment: flow cytometry competition on CHO-TNFR2 cells: antibody first, then human TNFα-biotin, PE-streptavidin; MFI of bound TNFα-biotin [label on D00006), panel #133, table under the plot]
T1 construct: whole, on cells; The assay field of each row says which cells; also called TNFR2-CHO cell; TNFR2 on Treg cells
T1 sequence (looked up): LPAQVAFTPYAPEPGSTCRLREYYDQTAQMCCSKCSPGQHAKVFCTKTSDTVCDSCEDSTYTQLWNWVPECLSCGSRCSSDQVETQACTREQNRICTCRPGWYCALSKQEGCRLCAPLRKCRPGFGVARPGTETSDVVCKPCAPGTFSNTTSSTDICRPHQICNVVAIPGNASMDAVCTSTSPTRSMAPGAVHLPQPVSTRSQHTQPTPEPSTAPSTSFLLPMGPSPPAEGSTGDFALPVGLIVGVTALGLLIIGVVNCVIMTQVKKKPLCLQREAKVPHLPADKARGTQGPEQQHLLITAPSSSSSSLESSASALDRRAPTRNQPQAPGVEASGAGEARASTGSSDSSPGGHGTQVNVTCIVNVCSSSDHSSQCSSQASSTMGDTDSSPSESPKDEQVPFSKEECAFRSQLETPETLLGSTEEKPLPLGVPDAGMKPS
Experimental: (§1) CHO cells that stably overexpressed human TNFR2 were used for experiments. The cells were resuscitated and passaged until in good state, and the expression level of human TNFR2 on the cells was assessed by FACS. Compared to the isotype control, the assay could be carried out when the fold change of mean fluorescence intensity (MFI) was more than 100 times.
(§2) CHO-TNFR2 cells were digested, washed twice with DPBS and stained with Live/Dead (L/D) at room temperature for 20 min, and then seeded at 1×10⁵ cells/50 μl/well. […] The diluted antibodies were added 50 μl/well into wells pre-seeded with cells, and gently blown and mixed to make the final concentrations of the antibodies to 20, 6.67, 2.22, 0.74, 0.247, 0.08, 0.027 and 0 nM, respectively followed by incubation at 4° C. for 30 min. […] After washing twice with the staining buffer, 100 μl/well of PE-streptavidin was added and incubated at 4° C. for 30 min. After additional washing with the staining buffer twice, 150 μl resuspended cells was analyzed using an flow cytometry. Taking the logarithmic value of the antibody concentrations as abscissa and the corresponding MFI value as ordinate, the inhibition curve of the antibody was drawn, and the IC50 value was calculated by four parameters fitting.

[2] = molecular target: T1, human TNFR2 on the cell surface …; experiment: flow cytometry competition on CHO-TNFR2 cells: antibody first, then human TNFα-biotin, PE-streptavidin; MFI of bound TNFα-biotin [label on D00006), panel #224 (printed twice, bottom left and bottom right), table under the plot]
Experimental: as §1, §2

[3] = molecular target: T1, human TNFR2 on the cell surface …; experiment: flow cytometry competition on CHO-TNFR2 cells: antibody first, then human TNFα-biotin, PE-streptavidin; MFI of bound TNFα-biotin [panel #226, table under the plot]
Experimental: as §1, §2

[4] = molecular target: T1, human TNFR2 on the cell surface …; experiment: flow cytometry competition on CHO-TNFR2 cells: antibody first, then human TNFα-biotin, PE-streptavidin; MFI of bound TNFα-biotin [panel #352, table under the plot]
Experimental: as §1, §2

[5] = molecular target: T1, human TNFR2 on the cell surface …; experiment: flow cytometry competition on CHO-TNFR2 cells: antibody first, then human TNFα-biotin, PE-streptavidin; MFI of bound TNFα-biotin [panel #365, table under the plot]
Experimental: as §1, §2

[6] = molecular target: T1, human TNFR2 on the cell surface …; experiment: flow cytometry competition on CHO-TNFR2 cells: antibody first, then human TNFα-biotin, PE-streptavidin; MFI of bound TNFα-biotin [panel #395, table under the plot]
Experimental: as §1, §2

[7] = molecular target: T1, human TNFR2 on the cell surface …; experiment: flow cytometry competition on CHO-TNFR2 cells: antibody first, then human TNFα-biotin, PE-streptavidin; MFI of bound TNFα-biotin [panel #309, table under the plot]
Experimental: as §1, §2

[8] = molecular target: T1, human TNFR2 on the cell surface …; experiment: flow cytometry competition on CHO-TNFR2 cells: antibody first, then human TNFα-biotin, PE-streptavidin; MFI of bound TNFα-biotin [label on D00006), panel #125, table under the plot]
Experimental: as §1, §2

[9] = molecular target: T1, human TNFR2 on the cell surface …; experiment: flow cytometry competition on CHO-TNFR2 cells: antibody first, then human TNFα-biotin, PE-streptavidin; MFI of bound TNFα-biotin [label on D00006), panel #001, table under the plot]
Experimental: as §1, §2

[10] = molecular target: T1, human TNFR2 on the cell surface …; experiment: flow cytometry competition on CHO-TNFR2 cells: antibody first, then human TNFα-biotin, PE-streptavidin; MFI of bound TNFα-biotin [label on D00006), panel #088, table under the plot]
Experimental: as §1, §2

IC50 [1]: 0.04 µg/mL
B1: TNFR2 antibody #133 (antibody, V domains shown)
VH: EVQLQESGAELVRSGASVKLSCTASGFNIKDYYIQWVKQRPEQGLEWIGWIDPESGNTKYAPKFQDKATMTADTSSNTAYLQLSGLTSEDSAVYYCNAYYDYDGSMDYWGQGTTVTVSS
VL: DIVMTQSPLSLPVSLGDQASISCRSSQSLVHSNGNTYLHWYLQKPGQSPKLLIYKVSNRFSGVPDRFSGSGSGTDFTLKISRVETDDLGVYFCSQSTHVPTWTFGGGTKLEIK

IC50 [2]: 0.128 µg/mL
B2: TNFR2 antibody #224 (antibody, V domains shown)
VH: EVQLQESGPEIVKPGASVKLSCTASGFNNKDIYMHWVKQRPEQGLEWIGRIDPATGNTKHDPKFQDKATLSSDTSSNTAYLQFSSLTSEDTAVYYCAHSPYGDFGAMDYWGQGTTVTVSS
VL: DIQMTQSPAIMSASLGERVTMTCTASSSVSSNYLHWYQQKPGSSPKLWIYSTSNLPSGVPARFSGSGSGTSYSLTISSMEAEDAATYYCHQYHRSPWTFGGGTKLEIK

IC50 [3]: 0.06 µg/mL
B3: TNFR2 antibody #226 (antibody, V domains shown)
VH: EVQLQESGAELVRPGASVKLSCKASGYSFTNYWMNWVKQRPGQGLEWIGMIHPSDSETRLNQKFKDKATLTVDKSSSTAYMQLSSPTSEDSAVYYCARGEGLGAARSVSMDYWGQGTTVTVSS
VL: DIQMTQSPSSLSASLGDRVTISCRASQDISNYLNWYQQKPDGTVKVLIYYTALLHSGVPSRFSGSGSGTDYSLTISNLEQEDIATYFCQQGNTLPWTFGGGTKLEIK

IC50 [4]: 0.056 µg/mL
B4: TNFR2 antibody #352 (antibody, V domains shown)
VH: EVQLQESGPGLVAPSQSLSITCTVSGFSLTSYGVHWVRQPPGKGLEWLVVIWSDGGTTYNSALKSRLSISKDNSKSQVFLKMNSLQTDDTAMYYCARHDDDGYYAMDYWGQGTTVTVSS
VL: DIVLTQSPSLMSASPGEKVTMTCSASSSVGYMYWYQQKPRSSPKPWIYLTSNLASGVPARFSGSGSGTSYSLTISSMEVEDAATYYCQQWSSDPFTFGSGTKLEIK

IC50 [5]: 0.041 µg/mL
B5: TNFR2 antibody #365 (antibody, V domains shown)
VH: EVQLQESGPGLVQPSQSLSITCTVSGFSLTSYGVHWVRQSPGKGLEWLGLIWSDGSPDYSAAFISRLSINKDNSKSQVFFKMNSLQADDTAIYYCARNDDGGDYVMDYWGQGTTVTVSS
VL: EIVLTQSPALMSASPGEKVTMTCSASSSVSYMYWYQQKPRSSPKPWIYLTSNLASGVPARFSGSGSGTSYSLTISSMEAEDAATYYCQQWTSNPLTFGAGTKLEIK

IC50 [6]: 0.021 µg/mL
B6: TNFR2 antibody #395 (antibody, V domains shown)
VH: EVQLQESGPVLVQPSQSLSITCTVSGFSLTSYSVHWVRQSPGKGLEWLGVIWSDGGTDYSAAFISRLSISKDNSKSQVFFKMNSLQADDTAIYYCARNDDGGDYAMDYWGQGTTVTVSS
VL: EIVLTQSPALMSASPGEKVTMTCSASSSVSYMYWYQQKPRSSPKPWIYLTSNLASGVPARFSGSGSGTSYSLTISSMEAEDAATYYCQQWSSNPLTFGAGTKLEIK

IC50 [7]: 0.116 µg/mL
B7: TNFR2 antibody #309 (antibody, V domains shown)
VH: EVQLQESGAELVKPGASVKLSCKASGYTFTSYWIHWVKLRPGQGFEWIGEINPNNGGTDYNEKFKRKATLTVDKSSSTAYMELSSLTSEDSAIYYCTIDSMITTTWFAYWGQGTTVTVSS
VL: EIVMTQSQKLMSTVVGDRVSVTCKASQNVGTNVAWFQQKPGQSPKALINSASYRYSGVPDRFTGSGSGTDFTLTISSVQSEDLAEYFCQQYNSYPFTFGSGTKLEIK

IC50 [8]: 0.109 µg/mL
B8: TNFR2 antibody #125 (antibody, V domains shown)
VH: EVQLQESGGGLVQPGGSLNLSCAASGFAFSIYDLSWVRQTPEKRLEWVAYINNGGISTYYSDTVKGRFTISRDNAKNTLYLQMSSLKSEDTAMYYCVRGPFYGSANYFDYWGQGTTVTVSS
VL: DIQMTQSPASLSLSVGETVTITCRASENIYSNLAWYQQKQGKSPQLLVYDATKLAEGVPSRFSGSESGTQYSLKINSLQSEDFGTYYCQHFWVTPWTFGGGTKLEIK

IC50 [9]: 0.14 µg/mL
B9: TNFR2 antibody #001 (antibody, V domains shown)
VH: EVQLQESGGGLVQPGGSLNLSCAASGFAFSTYDLSWVRQTPEKRLEWVAYINNGGISTYYSDTVKGRFTISRDNAKNTLYLQMSSLKSEDTAMYYCVRGPFYGSANYFDYWGQGTTVTVSS
VL: EIVMTQSPASLSLSVGETVTITCRTSESIYSNLPWYQQKQGKSPQLLVYDATKLAEGVPSRFSGSESGTQYSLKINSLQSEDFGTYYCQHFWVTPWTFGGGTKLEIK
notes: also called antibody #1

IC50 [10]: 0.185 µg/mL
B10: TNFR2 antibody #088 (antibody, V domains shown)
VH: EVQLQESGGGLVQPGGSLNLSCAASGFAFSTYDLSWVRQTPGKRLEWVAYINNGGISTYYSDTVKGRFTITRDNAKNTLYLQMSSLKSEDTAMYYCVRGPFYGSANYFDYWGQGTTVTVSS
VL: DILMTQSPASLSLFVGETVTITCRASENIYSNLAWYQQKQGKSPQLLVYDATKLAEGVPSRFSGSESGTQYSLKINSLQSEDFGTYYCQHFWVTPWTFGGGTKLEIK
